± gives the standard deviation.
Test: protein stability index of a GFP-peptide fusion (GPS, HEK-293T) (PSI 1-6); higher = more stable
Settings: c terminus: a fixed tail appended
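Note: 24-mer peptide tiles fused after GFP, lentivirally expressed, FACS-sorted into six equal bins by GFP/DsRed ratio, decoded by Illumina sequencing, PSI is the read-weighted mean bin number.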

| Sequence | protein stability index (treatment: DMSO) | protein stability index (treatment: MLN4924 1 uM, 8 h) |
| --- | --- | --- |
| FAIGARARAEAEQMAKKAEAFQLY [FLOT1] | 2.78 ± 0.42 | 3.02 ± 0.58 |
| REGDCAPEEKIWEELSVLEVFEGR [MAGEA3] | 5.08 ± 0.22 | 5.14 ± 0.11 |
| QYEKYSFRGFPPEDLMPLAAAYGH [P3H4] | 3.01 ± 0.4 | 2.55 ± 0.57 |
| FILGRLCVPVFANMSREPFSTRAL [SOAT2] | 2.94 ± 0.56 | 2.56 ± 0.52 |
| VFFAYAQLGYLLFGTQVENFSTFI [PKD2L1] | 3.33 ± 0.054 | 2.71 ± 0.72 |
| QLRATAGSLILPPGPGGTMKRHSS [FCHO1] | 3.87 ± 0.16 | 3.91 ± 0.33 |
| SPLGALQHGFFRRTADEATNTGPA [DYRK1B] | 4.38 ± 0.16 | 4.57 ± 0.053 |
| AAPGKQPGRGHTHAAQGGPLLCPG [ELOA2] | 4.09 ± 0.31 | 4.31 ± 0.26 |
| EEKERIGQFVFARDAKAAMAGRLM [AASDHPPT] | 3.36 ± 0.19 | 3.43 ± 0.32 |
| GVGAYGTVYKARDPHSGHFVALKS [CDK4] | 2.89 ± 0.12 | 3.05 ± 0.32 |
| QLPIDRGGGEGKAMYIDTEGTFRP [RAD51] | 4.16 ± 0.15 | 4.05 ± 0.24 |
| KQEQSIISEYEKSLQFDEKCLSIM [RPAIN] | 3.67 ± 0.12 | 3.69 ± 0.23 |
| YTEGISQRMRVPEKLKVAPPNADL [MFF] | 3.28 ± 0.4 | 3.75 ± 0.32 |
| LFVLFMFFGMAFNFIVNDSRKKPI [SOAT1] | 3.19 ± 0.45 | 2.99 ± 0.24 |
| SGGSYRDSYESYGNSRSAPPTRGP [RBMX] | 4.3 ± 0.27 | 3.83 ± 0.38 |
| MKVEAKSHLQWQESRLKRSNPLAR [ZSCAN9] | 3.35 ± 0.33 | 3.67 ± 0.19 |
| LSPEVLRKEAYGKPVDIWACGVIL [CAMK2B] | 2.62 ± 0.71 | 2.51 ± 0.4 |
| LTRPEPVHEFCAGRECQPRWETSS [ADAMTSL2] | 3.76 ± 0.15 | 3.98 ± 0.42 |

| Sequence | protein stability index (treatment: DMSO) | protein stability index (treatment: MLN4924 1 uM, 8 h) |
| --- | --- | --- |
| LAEARRLFPGRVSVDLMLGLPAQQ [RSAD1] | 2.76 ± 0.25 | 2.7 ± 0.31 |
| MLLSVSQSMSEEEREKVTPLMVKG [SEPHS2] | 3.83 ± 0.36 | 3.86 ± 0.43 |
| SLGERMNTFVRYLLKRIKKCCGMR [KCNK9] | 3.38 ± 0.14 | 2.83 ± 0.32 |
| LLYDDLYDDDIDDEDEEEEDADCY [UBE2R2] | 4.26 ± 0.18 | 4.41 ± 0.27 |
| MVDSFHRTSLQYGIMCLKRLNYDR [PPFIA4] | 1.88 ± 0.15 | 2.27 ± 0.2 |
| DFITLYQMASQSSASHYKLQVIKA [M1AP] | 2.63 ± 0.3 | 2.44 ± 0.43 |
| WVSTQLQATCNVHKSAFNDWFSGH [FADS1] | 2.75 ± 0.82 | 2.43 ± 0.54 |
| RTDLKDLIIFDKQSSQRMRQNLKL [CEP70] | 2.93 ± 0.24 | 2.93 ± 0.32 |
| AKKIKLTAEAEELKPFFMKEVGSH [SOAT1] | 3.5 ± 0.34 | 3.59 ± 0.38 |
| SCTIIFLASIFQLAMWTTALLHQA [TMEM175] | 2.5 ± 0.2 | 3.17 ± 0.54 |
| STTNSTAAKPAASITSKPATLTTT [ZNF207] | 4.39 ± 0.25 | 4.41 ± 0.081 |
| LTDGHFENILADNSVNDQTKILVV [SERPINB5] | 3.09 ± 0.44 | 3.67 ± 0.29 |
| QFHKQIAVMRGQILNLTQALKDNK [PI4K2A] | 2.5 ± 0.36 | 2.8 ± 0.35 |
| EMPYNIWCDGCKNHIGMGVRYNAE [YJU2B] | 2.27 ± 0.32 | 2.49 ± 0.25 |
| LKRAFEAANLPALVLKIMSGTFAP [NEK8] | 2.57 ± 0.59 | 2.71 ± 0.57 |
| SLIQLLGRNFILFIIFGTMEEMQN [HACD3] | 2.92 ± 0.67 | 3.01 ± 1.3 |
| ASLNIKTTVPEVEPPQDSHSRKTV [PRPH] | 5.21 ± 0.43 | 5.18 ± 0.21 |
| PQHVSSDKEVRAASTEADKRLSRF [NLN] | 5.3 ± 0.18 | 5.1 ± 0.22 |

Source: the supplement of paper PMC10567573
